Each block holds one molecule with its values, some of them ahead of it.
Assays:
CD40 [1] = biological target: T1, CD40 (Homo sapiens, UniProt P25942); assay: CD40 agonistic activity in primary CLL cells, 48 h, flow cytometry; type: cell-based; settings: for CD40 stimulation (viability, CD86 and CD95 expression): various concentrations, FIG. 3A-C
T1 construct: Primary chronic lymphocytic leukemia (CLL) cells express CD40 on the cell surface; endogenous in cells; host or cells: primary CLL PBMCs from untreated CLL patients
T1 sequence (P25942 21-277): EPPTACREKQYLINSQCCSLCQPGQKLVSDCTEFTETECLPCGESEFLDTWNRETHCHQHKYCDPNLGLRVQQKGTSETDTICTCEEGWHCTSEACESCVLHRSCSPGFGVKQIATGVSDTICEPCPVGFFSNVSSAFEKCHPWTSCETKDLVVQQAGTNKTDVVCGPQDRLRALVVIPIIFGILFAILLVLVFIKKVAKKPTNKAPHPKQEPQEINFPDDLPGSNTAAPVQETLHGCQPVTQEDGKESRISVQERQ
Method: PBMCs (≥90% CD5^+CD19^+) from untreated CLL patients were obtained and cryopreserved as described in Example 3. Thawed cells were kept in complete IMDM.
To assess whether binding of the VHH to CD40 has agonistic effects, primary CLL PBMCs were cultured for 48 hours in the presence of VHH, medium control or recombinant multimeric CD40 ligand (rmCD40L; 100 ng/mL, Bioconnect).
After 48 hours, cells were harvested, washed and incubated with AF700-conjugated anti-CD19 (557921), FITC-conjugated anti-CD80 (6109965), APC-conjugated anti-CD86 (555660, all BD Biosciences), PE-conjugated anti-CD5 (12-0059-42, Thermo Fisher Scientific) and PECy7-conjugated anti-CD95 (305621, Biolegend, San Diego, Calif., USA) antibodies for 20 minutes at 4° C. Alternatively, after 48 hours, cells were harvested and viability was measured using Mitotracker Orange (25-minute incubation at 37° C.) and To-pro-3 (10-minute incubation at room temperature; both Thermo Fisher Scientific). Samples were measured on a FACSCanto cytometer (BD Biosciences) and analyzed with Flowjo MacV10.
To assess whether binding of the VHH has agonistic effects, primary CLL PBMCs were cultured with the indicated concentrations of V19S76K-5C8, medium control or rmCD40L for 48 hours and analyzed by flow cytometry as described in Example 4.

human CD40 [2] = biological target: T2, human CD40 (human, UniProt P25942 21-277); assay: flow cytometry, CD40-transfected HEK293T cells, VHH 1 µM, Myc-tag detection; controls: cells without VHH and WT HEK293T with and without VHH
T2 construct: In the assays it stood on CD40-transfected HEK293T cells, primary CLL cells or the CLL-derived CII cell line; also called tumor necrosis factor receptor superfamily member 5; TNR5_HUMAN
T2 sequence (P25942 21-277 limits assumed): as the sequence (P25942 21-277) above
Method: FIG. 1: Anti-CD40 VHHs bind to CD40-expressing cells. (A) CD40 expression on WT (filled histogram) and CD40-transfected (unfilled histogram) HEK293T cells. (B) CD40-negative WT or CD40-transfected HEK293T cells were incubated with V12t (1 μM), V15t (1 μM), V19t (1 μM) or medium control and the Myc-tag was subsequently detected by flow cytometry. Representative histograms obtained in 3 independent experiments are shown.

human CD40 [3] = biological target: T2, human CD40; assay: cell-based or functional assay
CD40+ CII target cells = assay: Cytotoxicity assay: CII target cells with Vγ9Vδ2-T cells; type: cell-based, human; settings: overnight with Vγ9Vδ2-T cells, 1:1 ratio; FIG. 11A
Method: CD40^+ CII cells and Vγ9Vδ2-T cells were grown as described in Example 7.
CII target cells were labeled with carboxyfluorescein succinimidyl ester (CFSE; C1157, Thermo Fisher Scientific) and incubated with VHH or medium control for 30 minutes at 37° C. Target cells were then cocultured overnight with Vγ9Vδ2-T cell lines in a 1:1 ratio.
Viability was measured as described in Example 4.

CD40 [4] = biological target: T1, CD40; assay: CD40 antagonistic activity in primary CLL cells: pre-incubation, then rmCD40L for 48 h; type: cell-based; settings: 30 min pre-incubation, then rmCD40L 100 ng/mL for 48 hours; FIG. 4A-C
Method: PBMCs (≥90% CD5^+CD19^+) from untreated CLL patients were obtained and cryopreserved as described in […]. Thawed cells were kept in complete IMDM.
To test whether the VHH antagonizes CD40 stimulation, primary CLL PBMCs were pre-incubated with VHH or medium control for 30 minutes at 37° C. and subsequently cultured for 48 hours in the presence of rmCD40L (100 ng/mL).
After 48 hours, cells were analyzed by flow cytometry as described in Example 4.
To assess whether binding of the VHH has antagonistic effects, primary CLL PBMCs were pre-incubated with V19S76K-5C8 or medium control and then cultured with rmCD40L for 48 hours and analyzed by flow cytometry as described in Example 5.

[5] = biological target: T3, human CD40 (CD40-transfected HEK293T cells) (Homo sapiens, UniProt P25942); assay: Monovalent VHH binding to CD40-transfected HEK293T cells, Myc-tag flow cytometry; settings: for average geometric mean fluorescence intensity (Myc-tag): CD40-transfected HEK293T cells, 2 experiments
T3 construct: expressed in transfected cells; host or cells: HEK293T
T3 sequence (P25942 21-277): as above
Method: The embryonic kidney cell line HEK293T, either wildtype (WT) or transfected with human CD40, was grown in Dulbecco's Modified Eagle Medium (41965-039, Thermo Fisher Scientific, Waltham, Mass., USA), supplemented with 10% fetal calf serum (F7524, Merck, Kenilworth, N.J., USA), 200 mM L-glutamine (25030-123, Thermo Fisher Scientific), 0.05 mM β-mercapto-ethanol (M6250, Merck) and 10,000 U/mL penicillin/streptomycin (15140-122, Thermo Fisher Scientific), hereafter referred to as complete DMEM.
CD40 expression on CD40-transfected cells was confirmed by incubation with a PE-conjugated anti-CD40 antibody (IM1936U, Beckman Coulter, Brea, Calif., USA) for 20 minutes at 4° C. […] Bound VHH was detected by sequential incubation with mouse-anti-Myc tag (05-274, Merck) and AF488-conjugated goat-anti-mouse (A-11001, Thermo Fisher Scientific) antibodies for 20 minutes at 4° C.
Samples were measured on a FACSCanto cytometer (BD Biosciences, Franklin Lakes, N.J., USA) and analyzed with Flowjo MacV10.

- CD40 stimulation (expression of CD80, CD86 and CD95) (CD40 [1]; FIG. 7A-C): effectively induced CD40 stimulation
Molecule: rmCD40L: recombinant multimeric CD40 ligand, 100 ng/mL, Bioconnect [reference compound]
- CD40 stimulation (viability, CD86 and CD95 expression) (CD40 [1]): effectively induced CD40 stimulation

- binding result (human CD40 [2]): binds
B1: V12t (VHH)
VHH: QVQLQESGGGLVQAGGSLRLSCAASGLVFKRYSMNWYRQPPGQQRGLVASISDSGVSTNYADSVKGRFTISRDNAKNIGYLQMNSLKPEDTAVYYCNMHTFWGQGTQVTVSS
notes: Llama VHH with C-terminal Myc- and His6-tag; also called monovalent anti-CD40 VHH V12t

- binding result (human CD40 [2]): binds
B2: V15t (VHH)
VHH: EVQLQESGGGLVQAGGSLRLSCVTSGSAFSSDTMGWFRQAPGKQRELVASISSRGVREYADSVKGRFTISRDNAKNTVYLQMNSLQPEDTAVYYCNRGALGLPGYRPYNNWGQGTQVTVSS
notes: Llama VHH with C-terminal Myc- and His6-tag; also called monovalent anti-CD40 VHH V15t

B3: V12-5C8t (bispecific antibody)
chain: QVQLQESGGGLVQAGGSLRLSCAASGLVFKRYSMNWYRQPPGQQRGLVASISDSGVSTNYADSVKGRFTISRDNAKNIGYLQMNSLKPEDTAVYYCNMHTFWGQGTQVTVSSGGGGSEVQLVESGGGLVQAGGSLRLSCAASGRPFSNYAMGWFRQAPGKEREFVAAISWSGGSTSYADSVKGRFTISRDNAKNTVYLQMNSPKPEDTAIYYCAAQFSGADYGFGRLGIRGYEYDYWGQGTQVTVSSGLEGHSDHMEQKLISEEDLNRISDHHHHHH
- lysis of primary CLL cells by Vγ9Vδ2-T cells (specific cell death) at 100 nM (human CD40 [3]): 45.3%

B4: V12-5C8t: bispecific VHH: anti-CD40 V12 joined to anti-Vδ2-TCR 5C8 by Gly4Ser linker, Myc- and His6-tag, SEQ ID NO:37 (protein)
VHH: B3 chain
modifications: antibody sequence
- lysis of CII target cells (CD40+ CII target cells): less potent

B5: V19-5C8t (bispecific antibody)
chain: QVQLQESGGGLVQAGGSLRLSCAASGRTFGRSAMGWFRQAPGKEREFVAAIGTRGGSTKYADSVKGRFTISTDNASNTVYLQMDSLKPEDTAVYRCAVRGPGYPSAAIFQDEYHYWGQGTQVTVSSGGGGSEVQLVESGGGLVQAGGSLRLSCAASGRPFSNYAMGWFRQAPGKEREFVAAISWSGGSTSYADSVKGRFTISRDNAKNTVYLQMNSPKPEDTAIYYCAAQFSGADYGFGRLGIRGYEYDYWGQGTQVTVSSGLEGHSDHMEQKLISEEDLNRISDHHHHHH
- lysis of primary CLL cells by Vγ9Vδ2-T cells (specific cell death) at 100 nM (human CD40 [3]): 68.5%

- binding to CD40-expressing cells ([5]; detection of the Myc tag, FIG. 1B): bound to the CD40-expressing cells
B6: V12t: monovalent anti-CD40 VHH V12 with C-terminal Myc- and His6-tag, SEQ ID NO:36 (protein)
VHH: QVQLQESGGGLVQAGGSLRLSCAASGLVFKRYSMNWYRQPPGQQRGLVASISDSGVSTNYADSVKGRFTISRDNAKNIGYLQMNSLKPEDTAVYYCNMHTFWGQGTQVTVSSGLEGHSDHMEQKLISEEDLNRISDHHHHHH
modifications: antibody sequence
- prevention of CD40L-induced CD40 stimulation (viability, CD86 and CD95 expression) (CD40 [4]): did not block CD40L-induced effects
- CD40 stimulation (viability, CD86 and CD95 expression) (CD40 [1]): did not induce any of these effects

- binding affinity to CD40 after S76K mutation, relative to V19t [5]: retained
- average geometric mean fluorescence intensity (Myc-tag) ([5]; VHH concentration 1 pM): 4790
- average geometric mean fluorescence intensity (Myc-tag) ([5]; VHH concentration 10 pM): 4949
- average geometric mean fluorescence intensity (Myc-tag) ([5]; VHH concentration 100 pM): 5502
- average geometric mean fluorescence intensity (Myc-tag) ([5]; VHH concentration 1 nM): 7906
- average geometric mean fluorescence intensity (Myc-tag) ([5]; VHH concentration 10 nM): 9283
- average geometric mean fluorescence intensity (Myc-tag) ([5]; VHH concentration 100 nM): 17062
B7: V19S76Kt: V19t VHH in which serine at position 76 (putative glycosylation site) was altered into lysine, SEQ ID NO:22 (protein)
VHH: QVQLQESGGGLVQAGGSLRLSCAASGRTFGRSAMGWFRQAPGKEREFVAAIGTRGGSTKYADSVKGRFTISTDNAKNTVYLQMDSLKPEDTAVYRCAVRGPGYPSAAIFQDEYHYWGQGTQVTVSSGLEGHSDHMEQKLISEEDLNRISDHHHHHH
modifications: antibody sequence

B8: V15-5C8t (bispecific antibody)
chain: EVQLQESGGGLVQAGGSLRLSCVTSGSAFSSDTMGWFRQAPGKQRELVASISSRGVREYADSVKGRFTISRDNAKNTVYLQMNSLQPEDTAVYYCNRGALGLPGYRPYNNWGQGTQVTVSSGGGGSEVQLVESGGGLVQAGGSLRLSCAASGRPFSNYAMGWFRQAPGKEREFVAAISWSGGSTSYADSVKGRFTISRDNAKNTVYLQMNSPKPEDTAIYYCAAQFSGADYGFGRLGIRGYEYDYWGQGTQVTVSSGLEGHSDHMEQKLISEEDLNRISDHHHHHH
- lysis of primary CLL cells by Vγ9Vδ2-T cells (specific cell death) at 100 nM (human CD40 [3]): 70.5%

Source: patent US20220135694A1, “NOVEL CD40-BINDING ANTIBODIES” (LAVA THERAPEUTICS B.V., priority 2019, published 2022)
